Results published in IntAct's records for PubMed 28712572.

target: gbrap_human GABARAP (UniProt O95166)
Sequence (O95166 whole entry): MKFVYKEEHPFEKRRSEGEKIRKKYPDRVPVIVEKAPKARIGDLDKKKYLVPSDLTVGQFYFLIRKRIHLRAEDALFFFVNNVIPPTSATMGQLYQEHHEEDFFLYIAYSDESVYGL

Row | effect of a mutation on the interaction | Substance
1 | with no effect | Pericentriolar material 1 protein (Homo sapiens), Q15154 E1967C
2 | with no effect | Pericentriolar material 1 protein (Homo sapiens), Q15154 E1967D
3 | with no effect | Pericentriolar material 1 protein (Homo sapiens), Q15154 E1967F
4 | with no effect | Pericentriolar material 1 protein (Homo sapiens), Q15154 E1967G
5 | with no effect | Pericentriolar material 1 protein (Homo sapiens), Q15154 E1967H
6 | with no effect | Pericentriolar material 1 protein (Homo sapiens), Q15154 E1967I
7 | with no effect | Pericentriolar material 1 protein (Homo sapiens), Q15154 E1967K
8 | with no effect | Pericentriolar material 1 protein (Homo sapiens), Q15154 E1967L
9 | with no effect | Pericentriolar material 1 protein (Homo sapiens), Q15154 E1967M
10 | with no effect | Pericentriolar material 1 protein (Homo sapiens), Q15154 E1967N
11 | with no effect | Pericentriolar material 1 protein (Homo sapiens), Q15154 E1967P
12 | with no effect | Pericentriolar material 1 protein (Homo sapiens), Q15154 E1967Q
13 | with no effect | Pericentriolar material 1 protein (Homo sapiens), Q15154 E1967R
14 | with no effect | Pericentriolar material 1 protein (Homo sapiens), Q15154 E1967S
15 | with no effect | Pericentriolar material 1 protein (Homo sapiens), Q15154 E1967T
16 | with no effect | Pericentriolar material 1 protein (Homo sapiens), Q15154 E1967V
17 | with no effect | Pericentriolar material 1 protein (Homo sapiens), Q15154 E1967W
18 | with no effect | Pericentriolar material 1 protein (Homo sapiens), Q15154 E1967Y
19 | disrupting interaction strength | Pericentriolar material 1 protein (Homo sapiens), Q15154 F1963A
20 | disrupting interaction strength | Pericentriolar material 1 protein (Homo sapiens), Q15154 F1963C
21 | disrupting interaction strength | Pericentriolar material 1 protein (Homo sapiens), Q15154 F1963D
22 | disrupting interaction strength | Pericentriolar material 1 protein (Homo sapiens), Q15154 F1963E
23 | disrupting interaction strength | Pericentriolar material 1 protein (Homo sapiens), Q15154 F1963G

Row | effect of a mutation on the interaction | Substance
24 | disrupting interaction strength | Pericentriolar material 1 protein (Homo sapiens), Q15154 F1963H
25 | disrupting interaction strength | Pericentriolar material 1 protein (Homo sapiens), Q15154 F1963I
26 | disrupting interaction strength | Pericentriolar material 1 protein (Homo sapiens), Q15154 F1963K
27 | disrupting interaction strength | Pericentriolar material 1 protein (Homo sapiens), Q15154 F1963L
28 | disrupting interaction strength | Pericentriolar material 1 protein (Homo sapiens), Q15154 F1963M
29 | disrupting interaction strength | Pericentriolar material 1 protein (Homo sapiens), Q15154 F1963N
30 | disrupting interaction strength | Pericentriolar material 1 protein (Homo sapiens), Q15154 F1963P
31 | disrupting interaction strength | Pericentriolar material 1 protein (Homo sapiens), Q15154 F1963Q
32 | disrupting interaction strength | Pericentriolar material 1 protein (Homo sapiens), Q15154 F1963R
33 | disrupting interaction strength | Pericentriolar material 1 protein (Homo sapiens), Q15154 F1963S
34 | disrupting interaction strength | Pericentriolar material 1 protein (Homo sapiens), Q15154 F1963T
35 | disrupting interaction strength | Pericentriolar material 1 protein (Homo sapiens), Q15154 F1963V
36 | with no effect | Pericentriolar material 1 protein (Homo sapiens), Q15154 F1963W
37 | decreasing interaction strength | Pericentriolar material 1 protein (Homo sapiens), Q15154 F1963Y
38 | with no effect | Pericentriolar material 1 protein (Homo sapiens), Q15154 G1952A
39 | with no effect | Pericentriolar material 1 protein (Homo sapiens), Q15154 G1952C
40 | with no effect | Pericentriolar material 1 protein (Homo sapiens), Q15154 G1952D
41 | with no effect | Pericentriolar material 1 protein (Homo sapiens), Q15154 G1952E
42 | with no effect | Pericentriolar material 1 protein (Homo sapiens), Q15154 G1952F
43 | with no effect | Pericentriolar material 1 protein (Homo sapiens), Q15154 G1952H
44 | with no effect | Pericentriolar material 1 protein (Homo sapiens), Q15154 G1952I
45 | with no effect | Pericentriolar material 1 protein (Homo sapiens), Q15154 G1952K
46 | with no effect | Pericentriolar material 1 protein (Homo sapiens), Q15154 G1952L

Row | effect of a mutation on the interaction | Substance
47 | with no effect | Pericentriolar material 1 protein (Homo sapiens), Q15154 G1952M
48 | with no effect | Pericentriolar material 1 protein (Homo sapiens), Q15154 G1952N
49 | with no effect | Pericentriolar material 1 protein (Homo sapiens), Q15154 G1952P
50 | with no effect | Pericentriolar material 1 protein (Homo sapiens), Q15154 G1952Q
51 | with no effect | Pericentriolar material 1 protein (Homo sapiens), Q15154 G1952R
52 | with no effect | Pericentriolar material 1 protein (Homo sapiens), Q15154 G1952S
53 | with no effect | Pericentriolar material 1 protein (Homo sapiens), Q15154 G1952T
54 | with no effect | Pericentriolar material 1 protein (Homo sapiens), Q15154 G1952V
55 | with no effect | Pericentriolar material 1 protein (Homo sapiens), Q15154 G1952W
56 | with no effect | Pericentriolar material 1 protein (Homo sapiens), Q15154 G1952Y
57 | with no effect | Pericentriolar material 1 protein (Homo sapiens), Q15154 I1954A
58 | with no effect | Pericentriolar material 1 protein (Homo sapiens), Q15154 I1954C
59 | with no effect | Pericentriolar material 1 protein (Homo sapiens), Q15154 I1954D
60 | with no effect | Pericentriolar material 1 protein (Homo sapiens), Q15154 I1954E
61 | with no effect | Pericentriolar material 1 protein (Homo sapiens), Q15154 I1954F
62 | with no effect | Pericentriolar material 1 protein (Homo sapiens), Q15154 I1954G
63 | with no effect | Pericentriolar material 1 protein (Homo sapiens), Q15154 I1954H
64 | with no effect | Pericentriolar material 1 protein (Homo sapiens), Q15154 I1954K
65 | with no effect | Pericentriolar material 1 protein (Homo sapiens), Q15154 I1954L
66 | with no effect | Pericentriolar material 1 protein (Homo sapiens), Q15154 I1954M
67 | with no effect | Pericentriolar material 1 protein (Homo sapiens), Q15154 I1954N
68 | with no effect | Pericentriolar material 1 protein (Homo sapiens), Q15154 I1954P
69 | with no effect | Pericentriolar material 1 protein (Homo sapiens), Q15154 I1954Q
